Test results reported in the supplement of paper PMC7125110.
± gives the standard error. This sample holds only a part of the variants without activity.

B1: glmS ribozyme (parent)
chain: AUAAAAGCGCCAGAACUACAGAAAUGUAGUUGACGAGGAGGAGGUUUAUCGAAUUUUCGGCGGAUGCCUCCAAA

Variants of: B1
Assay: self-cleavage kobs at 2500 uM GlcN6P; higher = faster cleavage; RNA array
Details: with glucosamine-6-phosphate
How it was run: (§1)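 Glucosamine-6-phosphate (40 μM to 10 mM) in HEPES/KCl/Mg(OAc)2 buffer was flowed over sequenced MiSeq chips, and tiles were imaged over ~14 h. Barcoded ribozyme variants there had been transcribed in situ by E. coli RNA polymerase and were tracked through a hybridised Cy3 probe at 37 °C. One- or two-exponential decay fits to per-tile medians, normalised to baseline and to non-cleaving reference variants, gave kobs. kcat and KM came from weighted Michaelis–Menten fits across concentrations.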

Row | Variant | self-cleavage kobs at 2500 uM GlcN6P [s⁻¹]
1 | G40U C58G G60U C68U | < 1e-05
2 | A52G C61A C67U | 0.000197 ± 7.1e-05
3 | G41C U49A U65A | < 1e-05
4 | G40C A52G G60A | < 1e-05
5 | G60U C67A U69A | < 1e-05
6 | A42G A52C A53G U54G | < 1e-05
7 | A42U A52U U55C C70G | < 1e-05
8 | G41C G43C U55A U57G U69G | < 1e-05
9 | G40A U54G U69A | < 1e-05
10 | U49G A53G U69G | 4.58e-05 ± 1.6e-05
11 | U57A A64U C67U U69G | 8.87e-05 ± 2.4e-05
12 | U57C C58A C67G | 0.000113 ± 5.6e-05
13 | A42G A48U U54G | 0.000367 ± 0.0001
14 | C58A G59C C71U | < 1e-05
15 | G44U A52C U56C G63A C67U | < 1e-05
16 | A52G C58G C61A A64U C67U | 9.05e-05 ± 3.3e-05
17 | U47A A48U U55A G60A | < 1e-05
18 | U45G U57A | 5.34e-05 ± 1.2e-05
19 | G41U U47G U49A G66C C71U | < 1e-05
20 | G44A A48G U55A | < 1e-05
21 | G40A G41C A42C U49C | < 1e-05
22 | A48C U49C G59C | < 1e-05
23 | A52C U57C G66U | < 1e-05

Row | Variant | self-cleavage kobs at 2500 uM GlcN6P [s⁻¹]
24 | G59U A64C G66C | < 1e-05
25 | G40A U46G U47G | 0.000358 ± 0.00012
26 | G40A U45C A53C | 3.19e-05 ± 1.5e-05
27 | G41C G51C U56A G62A | < 1e-05
28 | G41C U45A U56G C67G C70G | 0.00118 ± 0.00023
29 | U55A U56A G66C | 0.000134 ± 3.4e-05
30 | A48C G51A C70G | < 1e-05
31 | A39U U49A U56G | < 1e-05
32 | G40U G66U C67U | < 1e-05
33 | G43A A53G G60U C70U | < 1e-05
34 | A39G U55G C71U | 0.00336 ± 0.0015
35 | U54G U57A C67G | 7.42e-05 ± 2.5e-05
36 | G40U C61U U65A | < 1e-05
37 | G40A U56A C70G | 0.000135 ± 3e-05
38 | U57A C67A C71A | 0.000181 ± 4.1e-05
39 | U46C G60U G62U G63C | < 1e-05
40 | U46G A48G U49G G59A | < 1e-05
41 | U56A G59A | 5.17e-05 ± 1.7e-05
42 | U46C U47A U69A | 0.000198 ± 6.5e-05
43 | G40A G43C G60C C67U | < 1e-05
44 | A39U G41U U46A | 4.67e-05 ± 1.4e-05
45 | G40A A48U C58A G60A | < 1e-05
46 | G43A G44C U54G | < 1e-05

Row | Variant | self-cleavage kobs at 2500 uM GlcN6P [s⁻¹]
47 | G41A U55A U57C A64U | < 1e-05
48 | G44C A48G A53C G59U | < 1e-05
49 | G44A G51U U57A | < 1e-05
50 | G40A U46G C67U | 0.000431 ± 0.0002
51 | C50U C61U U69A | 0.000118 ± 3.5e-05
52 | G43A U47A | 1.85e-05 ± 8.2e-06
53 | G41U A42U A52G U56A | 3.73e-05 ± 1.2e-05
54 | A42C U46A U56A | < 1e-05
55 | U47A U56G C68A | 7.37e-05 ± 3.6e-05
56 | A53U C67A C70A | 5.59e-05 ± 2.7e-05
57 | U45C C58U G59C | < 1e-05
58 | A52U U55C A64G | 4.16e-05 ± 1.5e-05
59 | U56G G66C C71U | 0.000269 ± 5.5e-05
60 | A39G G41U C68G | < 1e-05
61 | A52C G59C A64U | < 1e-05
62 | A52U U57A C71U | 0.000749 ± 0.00022
63 | A39G A64G U69A | 0.00038 ± 0.00012
64 | G43U G63U C68G | < 1e-05
65 | G43C G66U C67A | 0.000168 ± 5.2e-05
66 | U47C C61G | < 1e-05
67 | A42U U54C C70A | 7.14e-05 ± 2.1e-05
68 | C50A A53U C67U C68G | 4.54e-05 ± 2.1e-05
69 | A39G A42U U55G U57C G62A | < 1e-05

Row | Variant | self-cleavage kobs at 2500 uM GlcN6P [s⁻¹]
70 | G43U C68A C70U C71A | 9.92e-05 ± 2.8e-05
71 | A42U C61G U69G C70A | < 1e-05
72 | A48U G60C G63C C71U | < 1e-05
73 | C50A U55A C70U | 5.24e-05 ± 2.1e-05
74 | A42C G51A A64U C68G | < 1e-05
75 | A39U A48G U57A G60U C70G | < 1e-05
76 | A42U G66A | 7.23e-05 ± 2.1e-05
77 | G51C G66A | < 1e-05
78 | C50A U69C | 6.67e-05 ± 2e-05
79 | G43C G51C G59U | < 1e-05
80 | A39G U57A | 0.000309 ± 7e-05
81 | A48U C50U U56C G63A A64C U65A | < 1e-05
82 | U47G G62A C70G | 0.000139 ± 3.4e-05
83 | G63C G66U C71A | < 1e-05
84 | G41U U54G U56G G60A C70A | 7.76e-05 ± 2.1e-05
85 | G44U G60U C71A | < 1e-05
86 | U55A C61A C68A | 0.00152 ± 0.00071
87 | U57G C58A C70U C71G | 9.31e-05 ± 2.5e-05
88 | C50U G60A G63A | < 1e-05
89 | U57C G66A | 4.71e-05 ± 1.3e-05
90 | U57C G60A G66C | < 1e-05
91 | G40U U49A A64U C70U | < 1e-05
92 | C50G A52C U69C C70A | 0.000257 ± 8e-05

Variants of: B1
Assay: self-cleavage kobs at 10000 uM GlcN6P; higher = faster cleavage; RNA array
Details: with glucosamine-6-phosphate
How it was run: as §1

Row | Variant | self-cleavage kobs at 10000 uM GlcN6P [s⁻¹]
93 | C8G A15U A39U G51A A52G G60U | < 1e-05
94 | G41C U49A U65A | < 1e-05
95 | C8G C34U G43U G62U C71U | < 1e-05
96 | A6U A39U U54A G60U | < 1e-05
97 | G9U A33U G40A C58U | < 1e-05
98 | A6U G9A G29C C50U U69G | 9.44e-05 ± 3.8e-05
99 | A6U G7U C8U G32A G51U | < 1e-05
100 | C8G C34A G66C | < 1e-05
101 | C8U G37C G43A C58A | < 1e-05
102 | C10A G59U | 7.46e-05 ± 7.9e-06
103 | C8G A15G G37C U49G | < 1e-05
104 | G9A A15U G29U C68G | < 1e-05
105 | A6U C11A A39G | < 1e-05
106 | G9A G29A G40U G51A | < 1e-05
107 | A6C U47G U49C C67U | < 1e-05
108 | A6U G59A U69G | < 1e-05
109 | G9C U54G | < 1e-05
110 | G9A A36U U45A A64C | < 1e-05
111 | G7U G29U G32A A42U U55C G62C | < 1e-05
112 | U45G U57A | 9.86e-05 ± 1.3e-05
113 | C8G C10U U54G | < 1e-05

Row | Variant | self-cleavage kobs at 10000 uM GlcN6P [s⁻¹]
114 | G7C U49A C50U A53U U54C C68U | < 1e-05
115 | G44A A48G U55A | < 1e-05
116 | G7A U30G G41A C70A | < 1e-05
117 | C8A C34U A64U C68U | < 1e-05
118 | A6U U47G C50A | < 1e-05
119 | C8U U30G G43C | < 1e-05
120 | A39U U49A U56G | < 1e-05
121 | G9U A12G C16A | < 1e-05
122 | G7A U57A C58A | < 1e-05
123 | C8A A48U G66U | < 1e-05
124 | G7A C16G A52U C61A | < 1e-05
125 | G7C G32C G41C | < 1e-05
126 | G9U G13A U55G | < 1e-05
127 | C10A U45A U46C C70A | < 1e-05
128 | U54G U57A C67G | 7.25e-05 ± 1.8e-05
129 | A6C U31G G40C | < 1e-05
130 | C10G A14G | 3.42e-05 ± 7.2e-06
131 | A6U U45G U46C | 4.58e-05 ± 1.7e-05
132 | U56A G59A | 4.86e-05 ± 9.7e-06
133 | G40A G43C G60C C67U | < 1e-05
134 | A6G G29A G60C G63C | < 1e-05

Row | Variant | self-cleavage kobs at 10000 uM GlcN6P [s⁻¹]
135 | A39U G41U U46A | 0.000135 ± 2.6e-05
136 | A5U A39C U65G C68U | 4.87e-05 ± 1.6e-05
137 | G7U A14U G38C U57C G60U C67U | < 1e-05
138 | G9U A36G G43U U55G C68U | < 1e-05
139 | G7A C34U U57A | < 1e-05
140 | G44A G51U U57A | < 1e-05
141 | G43A U47A | 4.61e-05 ± 1.8e-05
142 | G7U C8A G9U U31C A33U | < 1e-05
143 | A6U C11G G41C G62A G66U | < 1e-05
144 | C8A G38A G40C U57C | < 1e-05
145 | G9U A42U U55G | < 1e-05
146 | C8U G32C A33C G40C | < 1e-05
147 | C10A A36U G59A G60A | < 1e-05
148 | C8G C58U C61U | < 1e-05
149 | C8G G43U G51U U54G | < 1e-05
150 | A52U U57A C71U | 0.00177 ± 0.00039
151 | U47C C61G | < 1e-05
152 | C8A C50G U54G C68U | 6.41e-05 ± 2.3e-05
153 | C10U A12G G13U A14C G41A | < 1e-05
154 | G9U G62U | < 1e-05
155 | G9U U30C U31C G43A U65A C68U C71A | < 1e-05

Row | Variant | self-cleavage kobs at 10000 uM GlcN6P [s⁻¹]
156 | A1C U2A A3U G7A C8G G9C C10G C16G | < 1e-05
157 | G9A A39C G41A A48C U49A | < 1e-05
158 | G7A C8G G9C G29U G35C G37A | < 1e-05
159 | G7U G32U G59C G62U U65G | < 1e-05
160 | A6C G32C G41C C58U U65A | < 1e-05
161 | A42U G66A | 0.000114 ± 2.5e-05
162 | G51C G66A | < 1e-05
163 | G7U A12C U45C | < 1e-05
164 | G9U A12G G37U | < 1e-05
165 | A39G U57A | 0.000335 ± 6.1e-05
166 | G9C G32C C71U | < 1e-05
167 | A6C A48U U54A C67U | < 1e-05
168 | A6U A12U A53G C67G | 8.82e-05 ± 1.8e-05
169 | G9A U45G C68U | < 1e-05
170 | U57C G66A | 0.000102 ± 1.5e-05
171 | A6U U45G G66A | 0.000175 ± 4.1e-05
172 | A6C G9A C34A G40C G43A C50U U54A C58G C68U | < 1e-05
173 | A6G U54A U56A | 0.000141 ± 2.8e-05
174 | C8U A15C G32U A36U A39C A48U | < 1e-05
